Reference: the supplement of paper PMC10567573

B1: WEE1 (parent)
chain: FLGSSFSPVRCGGPGDASPRGCGA
B2: DCAF4 (parent)
chain: DSHILLCLMGLAETPGCATLLPAS

Variants of: B1
Assay: protein stability index of a GFP-peptide fusion (GPS, HEK-293T) (PSI 1-6); higher = more stable
Settings: c terminus: a fixed tail appended
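Also: lentivirally expressed fusions sorted by FACS into six bins by GFP to DsRed ratio, PSI derived from sequencing read proportions per bin multiplied by bin number.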

Protein stability index of substitutions, site by site:
F1: N 2.48 | M 2.29 | W 2.16 | Y 1.87 | G 3.25 | K 2.95 | I 2.72 | C 2.82 | A 2.89 | Q 3.36 | P 3.4 | L 2.56 | T 2.82 | S 2.87 | D 2.95 | V 3.77 | H 3.26 | R 2.46
F6: D 3.42 | P 3.52 | H 2.48 | V 2.15 | I 3.26 | R 2.95 | E 3.91 | M 3.29 | K 3 | L 2.84 | C 3.15 | Q 3.41 | T 2.76 | S 2.87 | N 3.06 | G 3.36 | Y 1.81 | A 2.17
S5: K 1.8 | E 1.52 | A 1.98 | P 2.17 | R 1.63 | H 1.73 | M 2.27 | I 1.92 | V 1.39 | N 1.92 | F 4.63 | Y 2.51 | D 2.37 | T 1.59 | L 2.13 | G 1.91 | Q 1.58
G3: T 1.48 | D 2.02 | N 1.32 | S 1.92 | Y 1.91 | P 2.12 | C 1.91 | F 2.67 | K 2.16 | L 1.65 | A 2.19 | W 2.79 | M 1.68 | H 2.85 | R 2.34 | I 2.82 | E 2.58 | V 2.51 | Q 2.33
S7: A 1.4
L2: F 2.51 | E 3.41 | A 2.06 | Y 2.19 | Q 1.85 | C 1.95 | K 3.1 | D 3.37 | S 3.18 | M 2.07 | G 1.93 | W 2.35 | T 1.6 | N 2.45 | R 3.13 | H 2.02 | P 2.04
S4: G 2.16 | K 2.34 | V 1.46 | Q 1.86 | T 1.56 | F 1.93 | I 2.49 | R 1.69 | C 2.19 | Y 1.75 | L 1.48 | P 1.82 | H 1.24 | A 1.79 | M 2.06 | E 2.65 | N 2.07 | D 2.39

Variants of: B2
Assay: as above
Settings: c terminus: a fixed tail appended

Protein stability index of substitutions, site by site:
L20: G 2.44 | T 2.07 | P 2 | V 2.36 | E 1.9 | C 2.91 | S 2.54 | R 2.34 | Q 1.93 | F 3.14 | K 2.4 | D 2.36 | H 2.36 | Y 3.25 | M 2.52 | A 3.72 | I 2.38 | N 2.9
P22: K 3.2 | G 2.29 | A 3.01 | H 3.65 | R 3.03
A18: Q 2.02 | E 2.31 | Y 2.47 | D 2.39 | R 3.11 | C 4.64 | V 1.92 | T 2.3 | L 3.23 | G 1.11 | H 2.28 | P 2.65 | I 2.33 | F 2.32 | S 1.6 | K 2.82 | M 3.66 | N 2.07
A23: M 1.66 | L 1.69 | R 3.3 | N 3.13 | D 2.79 | E 3.69 | V 1.49 | F 3.27 | I 3.11 | T 2.42 | Q 2.72 | P 1.79 | H 1.66 | C 1.89 | Y 1.75 | G 2.37
L21: H 4.41 | A 3.11 | P 2.25 | S 1.65 | E 1.72 | T 2.04 | G 2.21 | N 3.01 | F 3.52 | D 1.71 | V 2.17 | W 2.8
A12: E 2.25 | F 3.3 | D 2.02 | I 2.11 | L 2.76 | Q 2.74 | P 3.88 | M 2.66 | W 4.01 | Y 4 | S 2.37 | N 1.69 | R 2.39 | K 1.92 | H 2.59 | C 2.96
E13: H 2.77 | K 2.59 | S 3.26 | Y 3.33 | L 2.42 | C 2.88 | D 3.06 | P 2 | G 1.88 | V 4.1 | M 3.96 | F 2.49 | I 4.29 | Q 2.36 | N 2.83 | T 2.89 | A 3.31
C17: G 3.08 | A 2.98 | N 1.99 | F 2.34 | D 1.47 | M 2.38 | W 2.44 | L 2.23 | T 3.4 | I 2.04 | E 2.63 | P 3 | H 2.58 | K 1.83 | S 2.81 | R 1.78 | Y 2.55
T19: I 2.58 | S 2.67 | W 2.05 | N 2.42 | L 2.15 | E 3.24 | Y 3.13 | K 3.24 | P 2.5 | Q 1.43 | A 2.22 | D 3.26 | F 3.47 | R 1.64 | G 2.93 | M 3.1
L11: W 1.8 | F 2.98 | Y 3.55 | E 1.3 | P 2.59 | I 1.97 | S 1.4 | R 2.05 | N 1.27 | A 2.08 | K 1.71 | M 2.42 | G 1.6 | T 2.7 | H 2.36 | V 2.65 | D 1.66 | Q 1.66 | C 2.76
S24: A 1.39 | E 1.74 | P 2.36 | T 3.75 | C 4.56 | W 2.76 | D 1.92 | Y 2.91 | R 2.1 | I 2.82 | N 2.69
G16: P 4.04 | L 2.05 | K 1.38 | I 2.9 | Y 2.65 | A 3.16 | M 2.6 | N 2.77 | D 3.45 | C 3.37 | V 2.76 | R 2.39 | Q 2.81 | E 3.54 | H 2.37 | F 2.85 | T 1.99
G10: T 3.51 | Q 2.23 | I 3.16 | E 1.79 | L 2.56 | S 3.06 | M 2.95 | Y 2.37 | K 3.89 | F 2.99 | H 3.23
T14: G 2.77 | K 3.42 | E 2.95 | A 2.93 | H 3.66 | S 2.47 | L 3.09 | Y 3.79 | D 1.92 | P 2.53 | C 2.24 | W 2.89 | N 3.05 | M 2.26 | R 2.05 | V 2.66
P15: W 2.46 | I 2.35 | M 2.44 | N 1.35 | G 2.54 | C 2.61 | V 2.59 | D 2.56 | L 3.33 | Y 2.44 | F 3.63 | E 2.06 | K 1.78 | R 2.66 | T 2.3 | S 2.52 | A 3.15
